# Values of other authors in PMC5250575.
# Target: Kv1.3 (Homo sapiens) (UniProt P22001)
# UniProt P22001, sequence (P22001 whole entry): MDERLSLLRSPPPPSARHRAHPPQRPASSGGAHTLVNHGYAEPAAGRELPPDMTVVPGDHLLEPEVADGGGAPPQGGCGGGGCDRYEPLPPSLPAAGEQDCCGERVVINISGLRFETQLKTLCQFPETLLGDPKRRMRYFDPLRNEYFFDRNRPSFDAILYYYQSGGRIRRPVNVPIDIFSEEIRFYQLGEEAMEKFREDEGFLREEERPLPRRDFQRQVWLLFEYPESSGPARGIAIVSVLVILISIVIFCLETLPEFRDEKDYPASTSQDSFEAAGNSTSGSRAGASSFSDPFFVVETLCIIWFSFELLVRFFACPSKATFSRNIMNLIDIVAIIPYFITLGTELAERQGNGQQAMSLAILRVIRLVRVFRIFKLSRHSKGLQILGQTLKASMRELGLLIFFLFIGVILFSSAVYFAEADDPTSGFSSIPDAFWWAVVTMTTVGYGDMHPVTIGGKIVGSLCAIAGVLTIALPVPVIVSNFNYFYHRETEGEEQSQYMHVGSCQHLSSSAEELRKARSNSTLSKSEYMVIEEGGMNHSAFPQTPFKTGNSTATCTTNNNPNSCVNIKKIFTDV
substance,measurement,value
Margatoxin (from UniProt P40755),Kd,0.0117 nM
